Where “and” joins values, the source holds several entries; their conditions need not be identical. Equal entries are not always repeated.
What was measured:
[1] = target: LolB (Escherichia coli) (UniProt P61320); details: cited from earlier work
[2] = target: LolB from Vibrio cholerae (Vibrio cholerae); assay: ITC; LolA injected on LolB-VC (750 µM and 100 µM); MicroCal auto-iTC200, 25 °C, 20 mM HEPES pH 7.5, 150 mM NaCl; heats of LolA on buffer subtracted; single site binding model; no lipoprotein present
[3] = target: T1, LolA (LolA-PG) (Porphyromonas gingivalis, UniProt B2RI10); assay: isothermal titration calorimetry (single-site model, […] °C); type: binding
T1 construct: gene PGN_0486; LolA residues 27–215

[4] = target: LolB from Vibrio cholerae (Vibrio cholerae (strain A1552)); assay: ITC; MicroCal auto-iTC200, 25 °C, 20 mM HEPES pH 7.5, 150 mM NaCl; LolA injected onto LolB, 20 injections, stirring 300 rpm; single site binding model; no lipoprotein present

For LolA (from UniProt P61316), the Kd [1] is listed as 30.6 µM.

In the case of “LolA from Vibrio cholerae (from UniProt A5F2G9 17-198) (natural protein)”, the Kd [2] is reported as 27.5 µM and 32.9 µM and the stoichiometry N [2] is reported as 0.72 and 0.83 and 0.78.

Molecule `N=C(N)SCc1ccc(Cl)c(Cl)c1` [A22] has a Kd [3] of 681 ± 44.1 µM.

B1: LolA from Vibrio cholerae (natural protein)
chain: APKDTLSERLAMSEGFSATFNQQVLSPEGKVILTGNGKVDIARPSLFRWETETPDENLLVSDGTTLWHFDPFVEQVTLYRAEEALEQTPFVLLTRNKASDWDAYHVEEKGDVFTLTPTALDSNQGRFQITISEKGVVQGFKVIEQDGQQSEFTFSKVKQQKPNASVFNYKVPKGVEVDDQRN
For B1, the Kd [4] was 30.2 µM.

Source: publication PMC10126205, “A comparative analysis of lipoprotein transport proteins: LolA and LolB from Vibrio cholerae and LolA from Porphyromonas gingivalis” (Scientific Reports, 2023)
